Biological target: the molecule itself
Assay: SEC

B1: human tryptophan 2,3-dioxygenase (40-390), Met108Ile variant (enzyme, UniProt P48775 40-390, looked up)
chain: LIYGNYLHLEKVLNAQELQSETKGNKIHDEHLFIITHQAYELWFKQILWELDSVREIFQNGHVRDERNILKVVSRMHRVSVILKLLVQQFSILETMTALDFNDFREYLSPASGFQSLQFRLLENKIGVLQNMRVPYNRRHYRDNFKGEENELLLKSEQEKTLLELVEAWLERTPGLEPHGFNFWGKLEKNITRGLEEEFIRIQAKEESEEKEEQVAEFQKQKEVLLSLFDEKRHEHLLSKGERRLSYRALQGALMIYFYREEPRFQVPFQLLTSLMDIDSLMTKWRYNHVCMVHRMLGSKAGTGGSSGYHYLRSTVSDRYKVFVDLFNLSTYLIPRHWIPKMNPTIHKFLY
stoichiometry N: 4

— PMC5421356 (Molecular genetics and metabolism, 2017)
